Source: patent US20010041790A1

How the values were obtained:
murine PrPsen (mouse) = murine PrPsen (mouse) (UniProt P04925); assay: cell-based or functional assay
[1] = molecular target: 35S-labeled hamster PrPsen, glycophosphoinositol-negative form (35S-HaPrPsen) (Syrian golden hamster) (UniProt P04273); assay: cell-based or functional assay

Row | Substance | IC50 of the conversion reaction [1] [µM] | also measured
1 | Mo3F4P109-141 (peptide) | – | IC50 of murine PrP conversion (murine PrPsen (mouse)): 50 µM
2 | MoP109-141 (peptide) | – | IC50 of the hamster PrP conversion reaction [1]: 70 µM; IC50 of murine PrP conversion (murine PrPsen (mouse)): 50 µM
3 | hamster PrP synthetic peptide P113-141 | – | IC50 of the in vitro conversion [1]: 40 µM
4 | hamster PrP synthetic peptide P115-141 | 40 | –
5 | hamster PrP synthetic peptide P117-141 | 80 | –
6 | hamster PrP synthetic peptide P119-128 | 550 | –
7 | hamster PrP synthetic peptide P119-136 | < 100 | –
8 | hamster PrP synthetic peptide P119-141 | 120 | –
